The source of these data is the RNAGym collection of RNA variant scans (doi:10.7554/elife.80360).

B1: Hairpin Ribozyme (parent)
chain: GUCCUCUUUCACGUGCGCGUGAAAGAGAGAAGUGAACCAGAGAAACACACGUUGUGGUAUAUUACCUGGUA

The series covers variants of B1. The series can be described thus: self-cleavage, relative activity (ratio to wild type); higher = more cleavage; co-transcriptional.
Regarding A30C A71C, the self-cleavage worked out at 0.592.

In the case of A28U G32C, the self-cleavage was 0.175.

As for A28U G32A, the self-cleavage is 0.234.

A31C U55C: the self-cleavage is 0.208.

Take A30G G51U: the self-cleavage was found to be 0.157.

Take A30U G54C: the self-cleavage was determined as 0.0714.

With G29C A31C, the self-cleavage was found to be 0.17.

Turning to A31G G54U, the self-cleavage is 0.223.

For the variant A31G G54A, the self-cleavage was 0.378.

For the variant A31C U62G, the self-cleavage amounted to 0.223.

Turning to G29U G54U, the self-cleavage came to 0.207.

G29U A49U: the self-cleavage is 0.0858.

On to A31C G54C, for which the self-cleavage stood at 0.198.

For the variant A31C G54U, the self-cleavage turned out to be 0.0998.

As to A31G A36G, the self-cleavage stood at 0.57.

Turning to A30U C46A, the self-cleavage was 0.128.

Regarding A30U C46G, the self-cleavage came out at 0.252.

Regarding G29A U55C, the self-cleavage came to 0.163.

On to A31G A39G, for which the self-cleavage is 0.192.

Turning to A30U G34A, the self-cleavage came to 0.216.

Regarding A30G A41U, the self-cleavage was 0.244.

A31G C37U: the self-cleavage turned out to be 0.349.

In the case of G29A A59U, the self-cleavage amounted to 0.162.

For the variant A28U G29U, the self-cleavage worked out at 0.0995.

Regarding A28U G29C, the self-cleavage worked out at 0.0715.

G29U A61U: the self-cleavage was determined as 0.0881.

For A30C A39G, the self-cleavage amounted to 0.1.

On to A31C G51C, for which the self-cleavage came out at 0.182.

As for A30U U63C, the self-cleavage was found to be 0.0881.

Consider A31C U67A, for which the self-cleavage stood at 0.2.

As for A31C U67C, the self-cleavage worked out at 0.0604.

Take A28U U60C: the self-cleavage was 0.871.

For G29U U53G, the self-cleavage is 0.102.

With A31G A49C, the self-cleavage was determined as 0.162.

With A31G A49G, the self-cleavage was found to be 0.241.

Consider G29A U33G, for which the self-cleavage was 0.167.

G29U G56A: the self-cleavage was 0.162.

For the variant A31G C66U, the self-cleavage was 0.294.

With G29C A39C, the self-cleavage worked out at 0.106.

Regarding G29C A39G, the self-cleavage was 0.0911.

A30C U33A: the self-cleavage was 0.0224.

In the case of G29U A45C, the self-cleavage was determined as 0.0757.

G29U A45U: the self-cleavage amounted to 0.101.

On to A30C A47C, for which the self-cleavage amounted to 0.156.

Take A30U G40U: the self-cleavage worked out at 0.129.

In the case of G29A G54C, the self-cleavage worked out at 0.0856.

For the variant G29A G54U, the self-cleavage was 0.214.

On to A28U U63G, for which the self-cleavage came to 0.105.

For A30G G42C, the self-cleavage was 0.169.

On to A30G G42A, for which the self-cleavage turned out to be 0.113.

Turning to A28U U33G, the self-cleavage worked out at 0.104.

Consider A30C C48A, for which the self-cleavage worked out at 0.103.

As for G29A C50U, the self-cleavage was found to be 0.178.

Take G29A A30C: the self-cleavage amounted to 0.115.

G29A A30U: the self-cleavage stood at 0.0939.

Take A28U C37G: the self-cleavage amounted to 0.193.

Turning to A28U C37U, the self-cleavage stood at 0.376.

As for A31C A39G, the self-cleavage was 0.09.

Consider A31C A39U, for which the self-cleavage turned out to be 0.183.

With A28U U58G, the self-cleavage was 0.416.

As to A30U, the self-cleavage came to 0.142.

For the variant A30C, the self-cleavage amounted to 0.183.

Regarding A30G, the self-cleavage was 0.153.

Consider A30G U62C, for which the self-cleavage came out at 0.13.

As for G29U C66U, the self-cleavage came out at 0.106.

Consider G29A A64G, for which the self-cleavage is 0.0994.

Turning to G29C G40A, the self-cleavage is 0.115.

As to G29C G40C, the self-cleavage worked out at 0.133.

As for A30U U58G, the self-cleavage was determined as 0.155.

As to A30U U58C, the self-cleavage is 0.107.

As to A30G A44C, the self-cleavage was 0.169.

For A30G A44G, the self-cleavage is 0.108.

Regarding A30G C65U, the self-cleavage stood at 0.125.

Turning to A28U C38U, the self-cleavage came to 0.343.

As for G29U C38A, the self-cleavage turned out to be 0.179.

Regarding G29U C38G, the self-cleavage is 0.186.

Turning to G29C G51U, the self-cleavage was determined as 0.141.

In the case of A30G G54A, the self-cleavage was found to be 0.102.

Consider G29A A36G, for which the self-cleavage was 0.135.

For the variant G29C A71G, the self-cleavage was 0.206.

Take G29C A71C: the self-cleavage is 0.179.

On to A30G U52C, for which the self-cleavage came to 0.116.

As to A30G U52A, the self-cleavage was determined as 0.112.

With A31G A71G, the self-cleavage amounted to 0.651.

On to A31G A47G, for which the self-cleavage was found to be 0.117.

Take A31G A47C: the self-cleavage amounted to 0.2.

Take A31G A47U: the self-cleavage is 0.0555.

As for A28U G40A, the self-cleavage amounted to 0.175.

G29U G68C: the self-cleavage worked out at 0.137.

Regarding A28U C48A, the self-cleavage is 0.131.

Take A28U C48U: the self-cleavage worked out at 0.251.

Take A31C C50U: the self-cleavage came to 0.0888.

As for A31C A44C, the self-cleavage amounted to 0.128.

With A31C G34A, the self-cleavage came to 0.163.

As to G29C U60G, the self-cleavage was 0.201.

Turning to A30C U58C, the self-cleavage is 0.158.

Turning to A30C G54U, the self-cleavage turned out to be 0.0809.

Turning to A30G U55A, the self-cleavage amounted to 0.122.

As to A30G U55G, the self-cleavage was 0.232.

For the variant G29U G42C, the self-cleavage worked out at 0.115.

In the case of G29U G42A, the self-cleavage amounted to 0.0859.

As to A31C G42U, the self-cleavage turned out to be 0.092.

Regarding A31C G42C, the self-cleavage worked out at 0.163.

G29C A61C: the self-cleavage stood at 0.206.

Take A30U U33C: the self-cleavage is 0.196.

With G29U A47C, the self-cleavage worked out at 0.0936.

As for G29U A47U, the self-cleavage stood at 0.169.

Take A30U A47G: the self-cleavage worked out at 0.0659.

For G29C A43C, the self-cleavage was found to be 0.125.

Regarding G29C G57U, the self-cleavage is 0.142.

As for G29C G57A, the self-cleavage was found to be 0.215.

For A28U G42U, the self-cleavage was found to be 0.218.

As to A28U G42C, the self-cleavage came to 0.0977.

Take G29C C46G: the self-cleavage is 0.0799.

For the variant A30C G69U, the self-cleavage was determined as 0.124.

For the variant A30C A36C, the self-cleavage was found to be 0.164.

Turning to A30C A36G, the self-cleavage worked out at 0.223.

For A28U U53G, the self-cleavage stood at 0.432.

Turning to A31G C46U, the self-cleavage amounted to 0.142.

Regarding A31G C46G, the self-cleavage was found to be 0.0961.

Regarding A31G C46A, the self-cleavage is 0.155.

As for A30G G56U, the self-cleavage came out at 0.133.

For the variant A30G G56A, the self-cleavage is 0.0987.

Regarding G29C G69U, the self-cleavage was determined as 0.119.

As to G29C G69A, the self-cleavage turned out to be 0.0986.

With A31G A59G, the self-cleavage turned out to be 0.205.

With A31G A59U, the self-cleavage stood at 0.184.

Consider A30C A31C, for which the self-cleavage was found to be 0.159.

Consider A30C A31G, for which the self-cleavage was found to be 0.141.

Turning to A30U A41C, the self-cleavage turned out to be 0.256.

As to G29A A35G, the self-cleavage was 0.147.

For the variant G29A A35C, the self-cleavage turned out to be 0.187.

Turning to A31C U53G, the self-cleavage turned out to be 0.176.

Consider A31C U53C, for which the self-cleavage stood at 0.0661.

Turning to G29C U63C, the self-cleavage was 0.094.

On to G29A C48G, for which the self-cleavage was 0.124.

For the variant A31G G68U, the self-cleavage came out at 0.113.

Regarding A31G, the self-cleavage was 0.729.

Turning to A31C, the self-cleavage was 0.131.

For the variant G29U G57C, the self-cleavage turned out to be 0.108.

As to G29U G57U, the self-cleavage came out at 0.149.

G29U C65A: the self-cleavage turned out to be 0.139.

With A30G U67G, the self-cleavage came to 0.0921.

Consider A30G U67C, for which the self-cleavage was found to be 0.119.

For the variant G29A A39G, the self-cleavage stood at 0.128.

Consider G29A A39C, for which the self-cleavage was found to be 0.108.

Regarding G29C C38A, the self-cleavage turned out to be 0.174.

Take G29U U63A: the self-cleavage stood at 0.146.

Turning to A28U C50G, the self-cleavage was found to be 0.173.

For the variant A28U C50A, the self-cleavage came to 0.213.

As to G29A G40C, the self-cleavage is 0.0971.

In the case of A30U A35C, the self-cleavage was determined as 0.0881.

For the variant A30U A35U, the self-cleavage amounted to 0.196.

As to G29U U52A, the self-cleavage came to 0.124.

Turning to A31C U70A, the self-cleavage was 0.131.

For the variant A28U C46G, the self-cleavage is 0.109.

On to A28U C46U, for which the self-cleavage is 0.046.

For the variant A30C C46U, the self-cleavage is 0.367.

As for G29U U70A, the self-cleavage is 0.21.

Take G29A A45G: the self-cleavage was 0.105.

As to A31C A35G, the self-cleavage came out at 0.13.

Take A31C U60A: the self-cleavage stood at 0.157.

A30G A71G: the self-cleavage was 0.109.

For A30G C46A, the self-cleavage stood at 0.202.

Consider A30U A64C, for which the self-cleavage was found to be 0.174.

Turning to A30U A64G, the self-cleavage was 0.106.

On to G29C U52C, for which the self-cleavage came to 0.163.
